Assay results published in the supplement of paper PMC9732359.
± gives the uncertainty stated by the source.

Assay: protein stability index of a GFP-peptide fusion (yeast GPS) (PSI 1-4); higher = more stable; sorted into four equal gates, so the index is relative within each strain
Outline: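 Yeast carrying a pooled library were grown to mid-log phase in leucine-free medium. Each library plasmid expresses Cherry and has a tiled 17-residue yeast protein peptide fused downstream of GFP. Cells were sorted into four equal gates by GFP/Cherry ratio, and plasmids from each gate were PCR-amplified, Illumina-sequenced and assigned to strains by barcode. Summing, across gates, the read frequency times the gate number gave each peptide's protein stability index.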

Row | Sequence | protein stability index (doa10∆) | protein stability index (pdr5∆) | protein stability index (san1∆) | protein stability index (ubr1∆)
1 | PKLKEGALHFVQQSEKL [YIL149C/MLP2] | 2.58 ± 0.064 | 2.33 ± 0.082 | 2.31 ± 0.066 | 2.88 ± 0.05
2 | VRFIGDSVAAIGIPVNK [QCR2] | 2.83 ± 0.13 | 2.52 ± 0.16 | 2.4 ± 0.14 | 3.02 ± 0.2
3 | PSLKFKPKAVARKSKEE [RPC53] | 2.82 ± 0.12 | 2.65 ± 0.086 | 2.43 ± 0.07 | 2.88 ± 0.077
4 | TYRYVSVSVLVDRLKIG [RPS25A] | 2.28 ± 0.091 | 1.48 ± 0.08 | 1.72 ± 0.072 | 1.45 ± 0.039
5 | DFGFDLDIEKEAPAGNI [MCD1] | 2.76 ± 0.26 |  |  | 3.3 ± 0.15
6 | SVDLEKLAFGLTKLNED [TAF14] | 3.54 ± 0.19 | 3.45 ± 0.17 | 3.6 ± 0.092 | 3.61 ± 0.12
7 | TYGFLTPNLWAEQPLPV [RPS2] | 1.21 ± 0.056 | 1.38 ± 0.081 | 1.37 ± 0.11 | 1.54 ± 0.059
8 | MKQPYVFVKKHHELIKV [SSN2] | 1.33 ± 0.072 | 1.27 ± 0.051 | 1.21 ± 0.08 | 1.2 ± 0.051
9 | DTICQSIQEQIQEFQGN [SNF5] | 3.27 ± 0.073 | 3.44 ± 0.1 | 3.36 ± 0.076 | 3.6 ± 0.075
10 | KNATEELLRLANEQLKL [CSN12] | 3 ± 0.071 | 2.93 ± 0.058 | 2.89 ± 0.077 | 2.8 ± 0.094
11 | KWPEYVRLQRQKKILSI [RPL8B] | 1.18 ± 0.061 | 1.16 ± 0.056 | 1.14 ± 0.098 | 1.17 ± 0.039
12 | KQYDNRITKSNEKSQAE [LRP1] | 2.91 ± 0.087 | 2.91 ± 0.11 | 2.77 ± 0.075 | 3.02 ± 0.037
13 | QVENMKWDFAKDIKGYG [PRE4] | 2.03 ± 0.078 | 1.54 ± 0.082 | 1.41 ± 0.16 | 1.68 ± 0.049
14 | SFAKLVPCEGKDVTQGL [SMC2] | 1.62 ± 0.08 | 2.07 ± 0.088 | 1.5 ± 0.23 | 1.86 ± 0.08
15 | VINLKQIAKFVVGLGER [RPT1] | 2.75 ± 0.14 | 3.39 ± 0.18 | 3.12 ± 0.3 | 
16 | TFTFTAHMGVLLVLLQD [SWP82] | 1.71 ± 0.044 | 1.32 ± 0.044 | 1.41 ± 0.087 | 1.42 ± 0.035
17 | IRKSETSGRYASYRICM [RPB5] | 2.57 ± 0.088 | 2.89 ± 0.063 | 2.9 ± 0.072 | 2.97 ± 0.086
18 | LTLMEKAAFEDLKSKGL [FAS1] | 3.03 ± 0.078 | 3.29 ± 0.088 | 3.2 ± 0.054 | 3.26 ± 0.052
19 | RHHWQYTKASLAKERQK [SSN8] | 1.74 ± 0.072 | 1.66 ± 0.07 | 1.4 ± 0.14 | 2.14 ± 0.064
20 | SRDLWCFSINDDPVPTP [SSN2] | 2.21 ± 0.085 | 2.21 ± 0.088 | 2.94 ± 0.081 | 2.63 ± 0.1
21 | ESEYREFESELKNVEET [ESC2] | 3.54 ± 0.25 | 3.47 ± 0.2 | 3.2 ± 0.18 | 3.31 ± 0.15
22 | VTLLANVRALYMRLWEI [RMP1] | 1.57 ± 0.21 |  |  | 

Row | Sequence | protein stability index (doa10∆) | protein stability index (pdr5∆) | protein stability index (san1∆) | protein stability index (ubr1∆)
23 | SLLNLLNISPFTFGLTV [RPP0] | 1.79 ± 0.049 | 1.91 ± 0.049 | 1.56 ± 0.078 | 1.84 ± 0.044
24 | PELGDKFSSRHGQKGVC [RET1] | 3.26 ± 0.12 | 3.42 ± 0.12 | 2.99 ± 0.14 | 3.09 ± 0.1
25 | CNGSALVEARSLGHQTS [MTR3] | 3.52 ± 0.17 |  | 3.1 ± 0.22 | 
26 | LFWKVKEEEGSFNNVIG [PRE2] | 3.13 ± 0.12 | 3.39 ± 0.11 | 3.21 ± 0.071 | 3.2 ± 0.11
27 | DVQKSSDSSSEDEVKVE [YLR335W/NUP2] | 2.7 ± 0.098 | 2.87 ± 0.092 | 2.69 ± 0.099 | 2.31 ± 0.044
28 | KIGEEDYGEEIKSGVAK [MTW1] |  | 2.93 ± 0.14 |  | 3.31 ± 0.12
29 | RLISQSLLASKSTYRTP [RIP1] | 2.79 ± 0.12 | 3.04 ± 0.21 | 2.82 ± 0.22 | 2.45 ± 0.14
30 | VFYQVTPEDADEEEDDE [RPL22B] | 1.84 ± 0.057 | 2.33 ± 0.068 | 2.63 ± 0.057 | 1.99 ± 0.071
31 | KVTSYDITGDIRNEGSD [ISW2] | 3.15 ± 0.17 | 3.04 ± 0.21 | 3.21 ± 0.14 | 
32 | TSLFHKFILSGFIFTSM [RRI2] | 2.09 ± 0.046 | 1.66 ± 0.03 | 1.94 ± 0.07 | 1.52 ± 0.044
33 | DEFYINVDKNLNEIKEH [RPN14] | 2.51 ± 0.072 | 2.5 ± 0.054 | 2.73 ± 0.062 | 2.92 ± 0.067
34 | NDKSEVLKVYSMINNSN [SRB8] | 2.9 ± 0.077 | 2.91 ± 0.07 | 2.86 ± 0.075 | 2.63 ± 0.071
35 | YNIELPLPPRIDPSVTM [RPT1] | 2.44 ± 0.21 | 2.73 ± 0.088 | 2.47 ± 0.12 | 1.95 ± 0.083
36 | YFKMFPASKHDKEVVYF [RPC34] | 2.72 ± 0.16 | 3.2 ± 0.093 | 3.26 ± 0.075 | 3.4 ± 0.19
37 | NGGEDTSVENEGPVANL [REC8] | 3.37 ± 0.089 | 3.45 ± 0.094 | 3.06 ± 0.11 | 3.16 ± 0.058
38 | GQLLSVKFLVYQGVYSM [YML031W/NDC1] | 1.61 ± 0.084 | 1.75 ± 0.14 | 1.48 ± 0.11 | 1.98 ± 0.11
39 | KRAASVARHIYMRKQVG [RPS19A] | 1.7 ± 0.2 |  | 1.88 ± 0.28 | 
40 | EIRPEMLGHYLGEFSIT [RPS15] |  | 3.02 ± 0.08 | 3.11 ± 0.19 | 2.87 ± 0.17
41 | VFLRNRLKYALNGREVK [RPS4A] | 2.93 ± 0.099 | 2.82 ± 0.12 | 2.69 ± 0.086 | 3.06 ± 0.095
42 | KACKTADKLVNVTQNEQ [SRP68] | 3.02 ± 0.13 | 3.04 ± 0.095 | 3 ± 0.073 | 3.07 ± 0.07
43 | TAMKKVEDGNILVFQVS [RPL25] | 2.53 ± 0.049 | 2.48 ± 0.056 | 2.48 ± 0.052 | 2.8 ± 0.044
